Assay results: publication PMC12036459

Experiments:
[1] = target: tubulin (taxol-stabilized microtubules); assay: single-molecule TIRF on bare microtubules; conditions: reference: E. coli tau (non-phosphorylated)
tau (human 2N4R) [2] = target: tau (human 2N4R) (UniProt P10636); assay: Hill coefficient of microtubule binding curve; conditions: reference: E. coli tau (non-phosphorylated)
[3] = target: tau (human 2N4R) dGAE, 297-391 (UniProt P10636); assay: filament co-assembly, ultracentrifugation, SDS-PAGE
tau (human 2N4R) [4] = target: tau (human 2N4R) (UniProt P10636); assay: single-molecule TIRF dwell time inside envelopes; conditions: reference: E. coli SNAP-tau (non-phosphorylated); sites T181,S198,S202,S210,T231,S235,S237,S352,S396,S404,S422
[5] = sites T181,S202,S210,T231,S235,S237,S241,S258,S262,T319,T373,T377,T403,S404
[6] = sites T181,S198,S202,S210,T231,S235,S237,S352,S396,S404,S422

Sequence of tau (human 2N4R) (P10636 whole entry, looked up, stated change not applied): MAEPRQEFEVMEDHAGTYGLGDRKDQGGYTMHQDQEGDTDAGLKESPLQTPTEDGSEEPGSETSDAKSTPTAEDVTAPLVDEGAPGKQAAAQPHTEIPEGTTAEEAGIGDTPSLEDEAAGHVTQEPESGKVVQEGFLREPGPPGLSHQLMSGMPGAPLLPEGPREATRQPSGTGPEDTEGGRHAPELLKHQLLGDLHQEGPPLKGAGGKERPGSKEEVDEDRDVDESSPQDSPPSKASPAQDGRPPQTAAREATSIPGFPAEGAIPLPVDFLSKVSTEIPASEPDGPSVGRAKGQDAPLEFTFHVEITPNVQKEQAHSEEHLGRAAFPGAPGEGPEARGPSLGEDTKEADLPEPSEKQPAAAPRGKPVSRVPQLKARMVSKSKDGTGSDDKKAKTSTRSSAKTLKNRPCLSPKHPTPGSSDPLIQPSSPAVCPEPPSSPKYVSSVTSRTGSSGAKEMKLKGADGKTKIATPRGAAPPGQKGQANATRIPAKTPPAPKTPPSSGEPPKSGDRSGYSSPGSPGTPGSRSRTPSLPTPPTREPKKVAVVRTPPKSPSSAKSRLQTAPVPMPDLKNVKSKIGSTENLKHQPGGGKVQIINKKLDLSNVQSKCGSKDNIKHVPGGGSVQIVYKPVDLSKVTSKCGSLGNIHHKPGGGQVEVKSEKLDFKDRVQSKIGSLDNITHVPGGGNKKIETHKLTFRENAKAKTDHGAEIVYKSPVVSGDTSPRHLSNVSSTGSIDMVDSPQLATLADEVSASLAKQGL

## tau (human 2N4R) (from UniProt P10636-8) HEK tau
[1]; [5]
  other: dwell time: weaker; reference ~ 4.3
Tau (human 2N4R) [2]; [5]
  other: Hill coefficient: same; reference 1.24
[3]; reference: E. coli tau (non-phosphorylated), sites T181,S202,S210,T231,S235,S237,S241,S258,S262,T319,T373,T377,T403,S404
  other: t1/2 of co-pelleting: same; reference ~ 14

## tau (human 2N4R) (from UniProt P10636-8) Sf9 tau
[1]; [6]
  other: dwell time: weaker; reference ~ 4.3
Tau (human 2N4R) [2]; [6]
  other: Hill coefficient: stronger; reference 1.24
[3]; reference: E. coli tau (non-phosphorylated), sites T181,S198,S202,S210,T231,S235,S237,S352,S396,S404,S422
  other: t1/2 of co-pelleting: stronger; reference ~ 14
[3]; reference: HEK tau, sites S210,S422
  other: t1/2 of co-pelleting: stronger; reference ~ 12

## tau (human 2N4R) (from UniProt P10636-8) Sf9 SNAP-tau
Tau (human 2N4R) [4]
  other: dwell time: weaker; reference ~ 6.06
